From patent US20080118529A1

Target: recombinant human collagen XVIII fragment endostatin (Entremed, Inc) (human) (UniProt P39060)
Experiment: ELISA; protein incubated with DXS500k or buffer immobilized, overlaid with tPA in 10 mM εACA

Tissue-type plasminogen activator (tPA, Actilyse, Boehringer-Ingelheim), sequence (P00750 36-562 limits assumed): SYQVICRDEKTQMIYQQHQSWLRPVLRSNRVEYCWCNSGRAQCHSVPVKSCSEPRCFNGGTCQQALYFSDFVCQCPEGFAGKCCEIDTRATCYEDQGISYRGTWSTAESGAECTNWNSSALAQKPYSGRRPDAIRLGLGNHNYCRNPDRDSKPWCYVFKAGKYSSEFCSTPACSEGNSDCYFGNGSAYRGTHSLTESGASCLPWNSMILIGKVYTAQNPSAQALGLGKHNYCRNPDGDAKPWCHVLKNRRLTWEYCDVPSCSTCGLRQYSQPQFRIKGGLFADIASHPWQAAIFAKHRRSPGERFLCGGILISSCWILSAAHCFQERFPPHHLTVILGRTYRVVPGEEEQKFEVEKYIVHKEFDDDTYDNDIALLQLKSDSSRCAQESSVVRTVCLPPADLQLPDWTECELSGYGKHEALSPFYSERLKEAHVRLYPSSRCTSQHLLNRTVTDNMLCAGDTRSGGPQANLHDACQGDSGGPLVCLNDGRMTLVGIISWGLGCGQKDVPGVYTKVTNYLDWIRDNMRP

With “Tissue-type plasminogen activator (tPA, Actilyse, Boehringer-Ingelheim) (from UniProt P00750 36-562) (enzyme)” the factor of increase in tPA binding (protein exposed to DXS500k against protein in buffer only) was 10.5 fold.
